In patent US20250262210A1 (TRUSTEES OF COLUMBIA UNIVERSITY IN THE CITY OF NEW YORK, published 2025):

Target: T1, ATAD2 (human, UniProt Q6PL18 1-1390, limits assumed)
T1 sequence (looked up): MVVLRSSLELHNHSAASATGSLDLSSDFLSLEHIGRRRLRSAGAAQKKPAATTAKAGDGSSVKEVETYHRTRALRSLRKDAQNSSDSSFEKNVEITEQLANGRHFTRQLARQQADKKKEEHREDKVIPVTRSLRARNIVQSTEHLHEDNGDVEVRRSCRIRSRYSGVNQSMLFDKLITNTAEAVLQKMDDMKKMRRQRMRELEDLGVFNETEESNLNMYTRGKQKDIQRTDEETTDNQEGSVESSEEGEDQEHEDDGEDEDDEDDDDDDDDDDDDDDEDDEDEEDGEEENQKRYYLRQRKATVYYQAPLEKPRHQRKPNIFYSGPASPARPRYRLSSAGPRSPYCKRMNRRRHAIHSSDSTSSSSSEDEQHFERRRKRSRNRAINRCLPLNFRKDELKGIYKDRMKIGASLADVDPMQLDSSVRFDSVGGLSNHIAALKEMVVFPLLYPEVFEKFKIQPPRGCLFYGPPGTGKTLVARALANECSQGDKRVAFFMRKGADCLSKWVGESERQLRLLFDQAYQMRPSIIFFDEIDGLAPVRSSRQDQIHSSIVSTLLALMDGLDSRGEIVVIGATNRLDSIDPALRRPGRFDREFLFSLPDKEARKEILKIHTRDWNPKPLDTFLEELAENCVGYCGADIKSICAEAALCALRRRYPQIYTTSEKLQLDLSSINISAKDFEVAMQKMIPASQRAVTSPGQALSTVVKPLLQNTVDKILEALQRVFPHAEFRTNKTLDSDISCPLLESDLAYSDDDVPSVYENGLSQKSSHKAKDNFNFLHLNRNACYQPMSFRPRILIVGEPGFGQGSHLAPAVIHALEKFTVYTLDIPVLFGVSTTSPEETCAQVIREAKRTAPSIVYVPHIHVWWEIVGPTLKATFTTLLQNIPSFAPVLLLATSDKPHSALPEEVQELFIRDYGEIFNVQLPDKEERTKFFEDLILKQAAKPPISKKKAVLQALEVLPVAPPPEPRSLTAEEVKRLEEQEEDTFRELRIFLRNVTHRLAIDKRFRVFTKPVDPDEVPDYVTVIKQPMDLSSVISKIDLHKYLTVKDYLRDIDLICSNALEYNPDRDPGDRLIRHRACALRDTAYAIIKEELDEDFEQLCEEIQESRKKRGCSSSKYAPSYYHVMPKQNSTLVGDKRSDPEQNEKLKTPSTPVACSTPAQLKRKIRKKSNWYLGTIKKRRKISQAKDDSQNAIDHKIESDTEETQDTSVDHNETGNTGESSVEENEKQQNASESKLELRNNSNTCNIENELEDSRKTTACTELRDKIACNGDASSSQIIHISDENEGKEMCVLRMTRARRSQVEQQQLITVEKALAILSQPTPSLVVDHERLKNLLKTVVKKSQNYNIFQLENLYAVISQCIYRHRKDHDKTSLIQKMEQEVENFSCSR
Assay: IP/MS, LZTR1 R810W-FLAG, U87
In short: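 Read-out: spectral counts from LC-MS/MS (Orbitrap Fusion) after MaxQuant identification. Variable modifications were Met oxidation, protein N-terminal acetylation and N/Q deamidation.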

B1: LZTR1 R810W-FLAG (other, human, UniProt Q8N653 1-840, looked up)
chain: MAGPGSTGGQIGAAALAGGARSKVAPSVDFDHSCSDSVEYLTLNFGPFETVHRWRRLPPCDEFVGARRSKHTVVAYKDAIYVFGGDNGKTMLNDLLRFDVKDCSWCRAFTTGTPPAPRYHHSAVVYGSSMFVFGGYTGDIYSNSNLKNKNDLFEYKFATGQWTEWKIEGRLPVARSAHGATVYSDKLWIFAGYDGNARLNDMWTIGLQDRELTCWEEVAQSGEIPPSCCNFPVAVCRDKMFVFSGQSGAKITNNLFQFEFKDKTWTRIPTEHLLRGSPPPPQRRYGHTMVAFDRHLYVFGGAADNTLPNELHCYDVDFQTWEVVQPSSDSEVGGAEVPERACASEEVPTLTYEERVGFKKSRDVFGLDFGTTSAKQPTQPASELPSGRLFHAAAVISDAMYIFGGTVDNNIRSGEMYRFQFSCYPKCTLHEDYGRLWESRQFCDVEFVLGEKEECVQGHVAIVTARSRWLRRKITQARERLAQKLEQEAAPVPREAPGVAAGGARPPLLHVAIREAEARPFEVLMQFLYTDKIKYPRKGHVEDVLLIMDVYKLALSFQLCRLEQLCRQYIEASVDLQNVLVVCESAARLQLSQLKEHCLNFVVKESHFNQVIMMKEFERLSSPLIVEIVRRKQQPPPRTPLDQPVDIGTSLIQDMKAYLEGAGAEFCDITLLLDGHPRPAHKAILAARSSYFEAMFRSFMPEDGQVNISIGEMVPSRQAFESMLRYIYYGEVNMPPEDSLYLFAAPYYYGFYNNRLQAYCKQNLEMNVTVQNVLQILEAADKTQALDMKRHCLHIIVHQFTKVSKLPTLWSLSQQLLLDIIDSLASHISDKQCAELGADI
notes: Stably expressed in U87 cells by lentivirus; also called LZTR1-FLAG-R810W; LZTR1 RW; not shown: FLAG tag
binding result: binds
